The record followed here is article PMC5925748 (Molecular cancer therapeutics, 2017).

The assay deals with sEGFR (soluble extracellular region of EGFR, wild type) (Homo sapiens, UniProt P00533). Kind of assay: SPR. In general terms: SPR reads the build-up and loss of mass on a sensor chip optically.

B1: necitumumab Fab (Fab11F8) (Fab, V domains shown)
VH: QVQLQESGPGLVKPSQTLSLTCTVSGGSISSGDYYWSWIRQPPGKGLEWIGYIYYSGSTDYNPSLKSRVTMSVDTSKNQFSLKVNSVTAADTAVYYCARVSIFGVGTFDYWGQGTLVTVSS
VL: EIVMTQSPATLSLSPGERATLSCRASQSVSSYLAWYQQKPGQAPRLLIYDASNRATGIPARFSGSGSGTDFTLTISSLEPEDFAVYYCHQYGSTPLTFGGGTKAEIK
On to B1, for which the dissociation constant Kd came out at 6.1 nM.

Usually Kd stands for a measure of binding affinity in units of concentration.
